Data as given in article PMC10848707.
Several values for one entry are separate records, joined by “and”; a condition that tells them apart may be missing. Identical values can stand only once.

Target: T1, recombinant influenza A virus nucleoprotein (A/WSN/1933) (influenza A virus (A/WSN/1933)), P15682
T1 chain: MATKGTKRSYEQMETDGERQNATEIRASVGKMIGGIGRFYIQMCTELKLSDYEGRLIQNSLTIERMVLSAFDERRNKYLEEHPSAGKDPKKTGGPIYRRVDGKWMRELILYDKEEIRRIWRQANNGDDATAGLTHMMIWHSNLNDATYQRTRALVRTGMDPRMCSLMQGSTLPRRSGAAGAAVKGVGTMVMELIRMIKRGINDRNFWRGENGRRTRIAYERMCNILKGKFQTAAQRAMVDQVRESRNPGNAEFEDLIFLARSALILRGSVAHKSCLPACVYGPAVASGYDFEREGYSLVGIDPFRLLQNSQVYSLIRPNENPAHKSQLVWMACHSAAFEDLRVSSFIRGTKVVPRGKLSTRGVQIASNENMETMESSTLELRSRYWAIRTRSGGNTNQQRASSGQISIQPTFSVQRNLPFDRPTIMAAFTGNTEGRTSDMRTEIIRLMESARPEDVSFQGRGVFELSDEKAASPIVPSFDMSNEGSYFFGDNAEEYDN
Test: negative staining EM; freshly assembled RNP-like mixture (NP with 12-nt RNA) diluted to 0.05 mg/ml, 2% sodium silicotungstate pH 7.0
Details: remark: other sources report otherwise

B1: recombinant influenza A virus nucleoprotein (A/WSN/1933), P15682 (natural protein)
chain: MATKGTKRSYEQMETDGERQNATEIRASVGKMIGGIGRFYIQMCTELKLSDYEGRLIQNSLTIERMVLSAFDERRNKYLEEHPSAGKDPKKTGGPIYRRVDGKWMRELILYDKEEIRRIWRQANNGDDATAGLTHMMIWHSNLNDATYQRTRALVRTGMDPRMCSLMQGSTLPRRSGAAGAAVKGVGTMVMELIRMIKRGINDRNFWRGENGRRTRIAYERMCNILKGKFQTAAQRAMVDQVRESRNPGNAEFEDLIFLARSALILRGSVAHKSCLPACVYGPAVASGYDFEREGYSLVGIDPFRLLQNSQVYSLIRPNENPAHKSQLVWMACHSAAFEDLRVSSFIRGTKVVPRGKLSTRGVQIASNENMETMESSTLELRSRYWAIRTRSGGNTNQQRASSGQISIQPTFSVQRNLPFDRPTIMAAFTGNTEGRTSDMRTEIIRLMESARPEDVSFQGRGVFELSDEKAASPIVPSFDMSNEGSYFFGDNAEEYDN
Question: For B1, which stoichiometry N is on record?
Answer: 3 and 4
